Data on two molecules can be found in US20240321457A1 (University of California, published 2024).

A value given as a limit tells only on which side of the number the result lay.

The assay deals with T1, UBE2N (human, UniProt P61088 1-152).
T1 construct: endogenous prey from cell lysate; also called UBC13
T1 sequence (looked up): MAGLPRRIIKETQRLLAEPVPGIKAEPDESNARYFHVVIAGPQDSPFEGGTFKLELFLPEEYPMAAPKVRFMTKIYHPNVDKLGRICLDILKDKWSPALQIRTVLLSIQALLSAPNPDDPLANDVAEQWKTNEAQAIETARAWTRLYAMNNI
The assay is described as follows: AP-MS, PPI score from compPASS and SAINTexpress, MDA-MB-231 cells.

Protocol: For AP-MS experiments, samples were resuspended in 15 μL of MS loading buffer (4% formic acid, 2% acetonitrile) and 2 μL were separated by a reversed-phase gradient over a nanoflow 75 μm ID×25 cm long picotip column packed with 1.9 μM C18 particles (Dr. Maisch). Peptides were directly injected over the course of a 75 min acquisition into a Q-Exactive Plus mass spectrometer (Thermo), or over the course of a 90 min acquisition into a Orbitrap Elite mass spectrometer. […] Peptides and proteins were filtered to 1% false discovery rate in MaxQuant, and identified proteins were then subjected to protein-protein interaction scoring.
All PPI scoring was performed separately for each cell line. For SAINTexpress, control samples in which bait protein was not induced by addition of doxycycline were used. For CompPASS, a stats table representing all WT baits was used. After scoring, the CompPASS WD and Z-score were normalized within a given bait for each cell line. The total list of candidate PPIs was filtered to those that met the following criteria: SAINTexpress BFDR=<0.05, WD percentile by bait>=0.95, and Z-score percentile by bait≤=0.95. PPIs passing all 3 of these criteria were considered to be high-confidence PPIs. To enable visualization and analysis of PPIs by confidence score among these 3 criteria, a PPI score was calculated: [(WD percentile by bait+Z-score percentile by bait)/2)+(1−BFDR)]/2.

B1: BRCA1 5382insC (enzyme, human, UniProt P38398 1-1755, looked up)
chain: MDLSALRVEEVQNVINAMQKILECPICLELIKEPVSTKCDHIFCKFCMLKLLNQKKGPSQCPLCKNDITKRSLQESTRFSQLVEELLKIICAFQLDTGLEYANSYNFAKKENNSPEHLKDEVSIIQSMGYRNRAKRLLQSEPENPSLQETSLSVQLSNLGTVRTLRTKQRIQPQKTSVYIELGSDSSEDTVNKATYCSVGDQELLQITPQGTRDEISLDSAKKAACEFSETDVTNTEHHQPSNNDLNTTEKRAAERHPEKYQGSSVSNLHVEPCGTNTHASSLQHENSSLLLTKDRMNVEKAEFCNKSKQPGLARSQHNRWAGSKETCNDRRTPSTEKKVDLNADPLCERKEWNKQKLPCSENPRDTEDVPWITLNSSIQKVNEWFSRSDELLGSDDSHDGESESNAKVADVLDVLNEVDEYSGSSEKIDLLASDPHEALICKSERVHSKSVESNIEDKIFGKTYRKKASLPNLSHVTENLIIGAFVTEPQIIQERPLTNKLKRKRRPTSGLHPEDFIKKADLAVQKTPEMINQGTNQTEQNGQVMNITNSGHENKTKGDSIQNEKNPNPIESLEKESAFKTKAEPISSSISNMELELNIHNSKAPKKNRLRRKSSTRHIHALELVVSRNLSPPNCTELQIDSCSSSEEIKKKKYNQMPVRHSRNLQLMEGKEPATGAKKSNKPNEQTSKRHDSDTFPELKLTNAPGSFTKCSNTSELKEFVNPSLPREEKEEKLETVKVSNNAEDPKDLMLSGERVLQTERSVESSSISLVPGTDYGTQESISLLEVSTLGKAKTEPNKCVSQCAAFENPKGLIHGCSKDNRNDTEGFKYPLGHEVNHSRETSIEMEESELDAQYLQNTFKVSKRQSFAPFSNPGNAEEECATFSAHSGSLKKQSPKVTFECEQKEENQGKNESNIKPVQTVNITAGFPVVGQKDKPVDNAKCSIKGGSRFCLSSQFRGNETGLITPNKHGLLQNPYRIPPLFPIKSFVKTKCKKNLLEENFEEHSMSPEREMGNENIPSTVSTISRNNIRENVFKEASSSNINEVGSSTNEVGSSINEIGSSDENIQAELGRNRGPKLNAMLRLGVLQPEVYKQSLPGSNCKHPEIKKQEYEEVVQTVNTDFSPYLISDNLEQPMGSSHASQVCSETPDDLLDDGEIKEDTSFAENDIKESSAVFSKSVQKGELSRSPSPFTHTHLAQGYRRGAKKLESSEENLSSEDEELPCFQHLLFGKVNNIPSQSTRHSTVATECLSKNTEENLLSLKNSLNDCSNQVILAKASQEHHLSEETKCSASLFSSQCSELEDLTANTNTQDPFLIGSSKQMRHQSESQGVGLSDKELVSDDEERGTGLEENNQEEQSMDSNLGEAASGCESETSVSEDCSGLSSQSDILTTQQRDTMQHNLIKLQQEMAELEAVLEQHGSQPSNSYPSIISDSSALEDLRNPEQSTSEKAVLTSQKSSEYPISQNPEGLSADKFEVSADSSTSKNKEPGVERSSPSKCPSLDDRWYMHSCSGSLQNRNYPSQEELIKVVDVEEQQLEESGPHDLTETSYLPRQDLEGTPYLESGISLFSDDPESDPSEDRAPESARVGNIPSSTSALKVPQLKVAESAQSPAAAHTTDTAGYNAMEESVSREKPELTASTERVNKRMSMVVSGLTPEEFMLVYKFARKHHITLTNLITEETTHVVMKTDAEFVCERTLKYFLGIAGGKWVVSYFWVTQSIKERKMLNEHDFEVRGDVVNGRNHQGPKRARESPGQKDLQGARNLLLWALHQHAHRSTGMDGTAVWCFCGEGAFIIHPWHRCPPNCGCAARCLDRGQWLPCNWADV
notes: 3xFLAG-tagged bait; also called 5832insC
For the molecule B1, the PPI score was less than 0.6.

B2: BRCA1 S1655F (enzyme, human, UniProt P38398 1-1863, looked up)
chain: MDLSALRVEEVQNVINAMQKILECPICLELIKEPVSTKCDHIFCKFCMLKLLNQKKGPSQCPLCKNDITKRSLQESTRFSQLVEELLKIICAFQLDTGLEYANSYNFAKKENNSPEHLKDEVSIIQSMGYRNRAKRLLQSEPENPSLQETSLSVQLSNLGTVRTLRTKQRIQPQKTSVYIELGSDSSEDTVNKATYCSVGDQELLQITPQGTRDEISLDSAKKAACEFSETDVTNTEHHQPSNNDLNTTEKRAAERHPEKYQGSSVSNLHVEPCGTNTHASSLQHENSSLLLTKDRMNVEKAEFCNKSKQPGLARSQHNRWAGSKETCNDRRTPSTEKKVDLNADPLCERKEWNKQKLPCSENPRDTEDVPWITLNSSIQKVNEWFSRSDELLGSDDSHDGESESNAKVADVLDVLNEVDEYSGSSEKIDLLASDPHEALICKSERVHSKSVESNIEDKIFGKTYRKKASLPNLSHVTENLIIGAFVTEPQIIQERPLTNKLKRKRRPTSGLHPEDFIKKADLAVQKTPEMINQGTNQTEQNGQVMNITNSGHENKTKGDSIQNEKNPNPIESLEKESAFKTKAEPISSSISNMELELNIHNSKAPKKNRLRRKSSTRHIHALELVVSRNLSPPNCTELQIDSCSSSEEIKKKKYNQMPVRHSRNLQLMEGKEPATGAKKSNKPNEQTSKRHDSDTFPELKLTNAPGSFTKCSNTSELKEFVNPSLPREEKEEKLETVKVSNNAEDPKDLMLSGERVLQTERSVESSSISLVPGTDYGTQESISLLEVSTLGKAKTEPNKCVSQCAAFENPKGLIHGCSKDNRNDTEGFKYPLGHEVNHSRETSIEMEESELDAQYLQNTFKVSKRQSFAPFSNPGNAEEECATFSAHSGSLKKQSPKVTFECEQKEENQGKNESNIKPVQTVNITAGFPVVGQKDKPVDNAKCSIKGGSRFCLSSQFRGNETGLITPNKHGLLQNPYRIPPLFPIKSFVKTKCKKNLLEENFEEHSMSPEREMGNENIPSTVSTISRNNIRENVFKEASSSNINEVGSSTNEVGSSINEIGSSDENIQAELGRNRGPKLNAMLRLGVLQPEVYKQSLPGSNCKHPEIKKQEYEEVVQTVNTDFSPYLISDNLEQPMGSSHASQVCSETPDDLLDDGEIKEDTSFAENDIKESSAVFSKSVQKGELSRSPSPFTHTHLAQGYRRGAKKLESSEENLSSEDEELPCFQHLLFGKVNNIPSQSTRHSTVATECLSKNTEENLLSLKNSLNDCSNQVILAKASQEHHLSEETKCSASLFSSQCSELEDLTANTNTQDPFLIGSSKQMRHQSESQGVGLSDKELVSDDEERGTGLEENNQEEQSMDSNLGEAASGCESETSVSEDCSGLSSQSDILTTQQRDTMQHNLIKLQQEMAELEAVLEQHGSQPSNSYPSIISDSSALEDLRNPEQSTSEKAVLTSQKSSEYPISQNPEGLSADKFEVSADSSTSKNKEPGVERSSPSKCPSLDDRWYMHSCSGSLQNRNYPSQEELIKVVDVEEQQLEESGPHDLTETSYLPRQDLEGTPYLESGISLFSDDPESDPSEDRAPESARVGNIPSSTSALKVPQLKVAESAQSPAAAHTTDTAGYNAMEESVSREKPELTASTERVNKRMSMVVFGLTPEEFMLVYKFARKHHITLTNLITEETTHVVMKTDAEFVCERTLKYFLGIAGGKWVVSYFWVTQSIKERKMLNEHDFEVRGDVVNGRNHQGPKRARESQDRKIFRGLEICCYGPFTNMPTDQLEWMVQLCGASVVKELSSFTLGTGVHPIVVVQPDAWTEDNGFHAIGQMCEAPVVTREWVLDSVALYQCQELDTYLIPQIPHSHY
notes: 3xFLAG-tagged bait; also called BRCT domain mutant S1655F; 51655F
The molecule B2 came in with a PPI score of less than 0.6.
